B1: monoclonal antibody AbF46 (antibody, IgG1, V domains shown)
VH: EVKLVESGGGLVQPGGSLRLSCATSGFTFTDYYMSWVRQPPGKALEWLGFIRNKANGYTTEYSASVKGRFTISRDNSQSILYLQMDTLRAEDSATYYCARDNWFAYWGQGTLVTVSA
VL: DILMTQSPSSLTVSAGEKVTMSCKSSQSLLASGNQNNYLAWHQQKPGRSPKMLIIWASTRVSGVPDRFIGSGSGTDFTLTINSVQAEDLAVYYCQQSYSAPLTFGAGTKLELKR
notes: also called SAIT-MET-AbF46 (hybridoma cell line); antibody of hybridoma KCLRF-BP-00220

Assays:
[1] = target: human c-Met/Fc fusion protein (R&D Systems) (human) (UniProt P08581); experiment: ELISA, c-Met/Fc coated at 2 ug/ml, goat anti-mouse IgG-HRP, OPD
[2] = target: mouse c-Met/Fc fusion protein (R&D Systems) (mouse) (UniProt P16056); experiment: as above
[3] = target: T1, human c-Met protein (immobilized on a CM5 chip) (human, UniProt P08581 25-932, limits assumed); experiment: SPR (Biacore), human c-Met immobilized on a CM5 chip, AbF46 flowed over
Method: (§1) A surface plasmon resonance (SPR) device (Biacore) was used to measure the binding affinity of the monoclonal antibody AbF46 prepared in Example 1 to human c-Met protein. The human c-Met protein was first immobilized on a CM5 chip, and the monoclonal antibody AbF46 was allowed to flow into a microfluidic chamber to obtain kₐ (on) and kb (off) values as illustrated in FIG. 2. Then, the Kd value was calculated from the kₐ and kb values. […] In addition, the Chi² value, which represents the reliability of the experiment, was 0.822 (in a Biacore analysis method, a Chi² value of 1 or less indicates high reliability of the data).

[4] = target: T1, human c-Met protein (immobilized on a …); experiment: SPR (Biacore), human c-Met immobilized on a CM5 chip, antibody in flow
Method: as §1

T1 sequence (P08581 25-932 limits assumed): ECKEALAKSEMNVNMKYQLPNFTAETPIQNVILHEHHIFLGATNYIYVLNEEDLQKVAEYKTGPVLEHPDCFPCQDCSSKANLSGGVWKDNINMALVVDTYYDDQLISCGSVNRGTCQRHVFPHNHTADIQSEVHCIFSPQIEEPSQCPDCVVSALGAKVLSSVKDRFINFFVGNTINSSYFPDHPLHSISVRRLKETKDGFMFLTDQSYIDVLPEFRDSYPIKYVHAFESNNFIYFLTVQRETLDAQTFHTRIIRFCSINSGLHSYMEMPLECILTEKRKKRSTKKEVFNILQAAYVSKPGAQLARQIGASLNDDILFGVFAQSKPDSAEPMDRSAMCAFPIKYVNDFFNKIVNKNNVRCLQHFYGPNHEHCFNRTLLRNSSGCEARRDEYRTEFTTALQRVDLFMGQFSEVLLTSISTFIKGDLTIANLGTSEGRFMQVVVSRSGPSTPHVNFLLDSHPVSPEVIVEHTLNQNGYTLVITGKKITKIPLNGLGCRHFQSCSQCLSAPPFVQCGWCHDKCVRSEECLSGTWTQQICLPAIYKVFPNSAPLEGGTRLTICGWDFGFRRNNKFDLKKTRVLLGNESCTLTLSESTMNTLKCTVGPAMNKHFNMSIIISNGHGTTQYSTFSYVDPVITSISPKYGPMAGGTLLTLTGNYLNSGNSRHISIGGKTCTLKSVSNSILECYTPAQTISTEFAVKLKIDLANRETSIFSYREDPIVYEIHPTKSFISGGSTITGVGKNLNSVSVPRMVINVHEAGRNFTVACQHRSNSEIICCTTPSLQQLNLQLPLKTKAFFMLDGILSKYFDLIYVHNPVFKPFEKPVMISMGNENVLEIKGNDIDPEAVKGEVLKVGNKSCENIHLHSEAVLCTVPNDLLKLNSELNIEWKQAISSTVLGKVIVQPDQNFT
mouse c-Met/Fc fusion protein (R&D Systems) (mouse), sequence (P16056 25-931 limits assumed): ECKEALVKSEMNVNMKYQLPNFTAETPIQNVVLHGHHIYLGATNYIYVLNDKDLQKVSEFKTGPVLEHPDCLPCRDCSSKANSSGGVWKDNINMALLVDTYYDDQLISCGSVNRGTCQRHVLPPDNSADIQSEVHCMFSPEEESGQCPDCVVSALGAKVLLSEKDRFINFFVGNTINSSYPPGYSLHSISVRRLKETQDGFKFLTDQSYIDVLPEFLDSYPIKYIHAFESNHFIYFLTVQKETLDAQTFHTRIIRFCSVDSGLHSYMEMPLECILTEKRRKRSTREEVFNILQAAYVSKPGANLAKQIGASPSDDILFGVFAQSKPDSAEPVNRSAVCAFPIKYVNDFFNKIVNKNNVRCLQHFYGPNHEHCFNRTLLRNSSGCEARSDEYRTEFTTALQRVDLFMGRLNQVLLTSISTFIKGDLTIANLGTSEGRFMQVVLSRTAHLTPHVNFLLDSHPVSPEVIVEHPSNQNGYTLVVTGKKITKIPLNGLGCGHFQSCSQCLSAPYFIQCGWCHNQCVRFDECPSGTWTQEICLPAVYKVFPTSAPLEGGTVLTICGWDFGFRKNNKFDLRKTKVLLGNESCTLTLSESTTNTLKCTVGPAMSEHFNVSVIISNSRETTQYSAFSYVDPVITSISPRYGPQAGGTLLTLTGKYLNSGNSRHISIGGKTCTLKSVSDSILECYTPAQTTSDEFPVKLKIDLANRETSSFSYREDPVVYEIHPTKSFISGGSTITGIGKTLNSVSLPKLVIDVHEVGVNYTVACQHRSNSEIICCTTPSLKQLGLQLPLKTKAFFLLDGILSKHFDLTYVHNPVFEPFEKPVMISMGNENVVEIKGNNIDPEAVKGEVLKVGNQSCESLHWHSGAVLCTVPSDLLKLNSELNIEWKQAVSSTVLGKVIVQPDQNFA
human c-Met/Fc fusion protein (R&D Systems) (human), sequence (P08581 25-932 limits assumed): as the sequence (P08581 25-932 limits assumed) above

Row | Molecule | absorption at 450 nm [1] | absorption at 450 nm [2] | koff [3] [s⁻¹] | kon [3] [M⁻¹ s⁻¹] | Kd [4] [nM]
1 | 5D5 (Genentech), monoclonal antibody against human c-Met | 0.373 | 0.113 |  |  | 
2 | B1 |  |  | 0.00155 | 385000 | 4

Reference: patent US20110104176A1 (SAMSUNG ELECTRONICS, published 2011)
